The values that follow come from US20200131274A1 (CRESCENDO BIOLOGICS, published 2020).

Usually Kd stands for the concentration at which binding is half-saturated. In general, koff refers to the first-order rate constant of dissociation.

Test [1] deals with T1, recombinant human PSMA (R&D, cat. no. 4234-ZN) (human, UniProt Q04609 44-750).
T1 construct: Bought protein; also called rhPSMA; Recombinant PMSA
The test is described as follows: Octet RED384 BLI, PSMA on sensor, VH purified from periplasmic extracts. On the technique in general: BLI is a label-free optical method that tracks binding on a fibre tip over time.

Test [2] has as its target human prostate specific membrane antigen (PSMA), full-length, on cells (human, UniProt Q04609 1-750). The test is described as follows: cell-based or functional assay.
For test [3], the target named is cynomolgus PSMA, full-length, on CHO cells (cynomolgus, UniProt A0A2K5VNZ0 1-750). The test is described as follows: cell-based or functional assay.

T1 sequence (Q04609 44-750 limits assumed): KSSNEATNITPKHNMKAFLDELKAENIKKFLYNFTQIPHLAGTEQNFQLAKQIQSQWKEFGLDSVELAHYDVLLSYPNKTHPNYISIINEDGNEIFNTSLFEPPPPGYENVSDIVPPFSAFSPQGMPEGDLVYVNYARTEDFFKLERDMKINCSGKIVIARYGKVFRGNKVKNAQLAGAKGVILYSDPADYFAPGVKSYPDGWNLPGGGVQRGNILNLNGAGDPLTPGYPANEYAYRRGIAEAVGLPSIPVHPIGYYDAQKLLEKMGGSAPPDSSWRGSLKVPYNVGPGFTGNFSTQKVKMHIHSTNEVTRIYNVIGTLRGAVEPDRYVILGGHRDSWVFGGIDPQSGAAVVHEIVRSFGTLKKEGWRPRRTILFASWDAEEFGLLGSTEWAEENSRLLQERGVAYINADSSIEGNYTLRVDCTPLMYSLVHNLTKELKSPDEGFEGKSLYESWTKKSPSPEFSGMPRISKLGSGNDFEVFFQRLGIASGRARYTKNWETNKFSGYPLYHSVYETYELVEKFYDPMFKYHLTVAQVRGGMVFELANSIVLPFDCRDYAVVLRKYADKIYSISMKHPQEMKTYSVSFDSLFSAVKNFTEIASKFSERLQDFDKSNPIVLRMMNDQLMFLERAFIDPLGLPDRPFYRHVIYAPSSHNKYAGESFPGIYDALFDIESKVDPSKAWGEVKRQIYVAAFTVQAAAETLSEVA
Sequence of human prostate specific membrane antigen (PSMA), full-length, on cells (Q04609 whole entry): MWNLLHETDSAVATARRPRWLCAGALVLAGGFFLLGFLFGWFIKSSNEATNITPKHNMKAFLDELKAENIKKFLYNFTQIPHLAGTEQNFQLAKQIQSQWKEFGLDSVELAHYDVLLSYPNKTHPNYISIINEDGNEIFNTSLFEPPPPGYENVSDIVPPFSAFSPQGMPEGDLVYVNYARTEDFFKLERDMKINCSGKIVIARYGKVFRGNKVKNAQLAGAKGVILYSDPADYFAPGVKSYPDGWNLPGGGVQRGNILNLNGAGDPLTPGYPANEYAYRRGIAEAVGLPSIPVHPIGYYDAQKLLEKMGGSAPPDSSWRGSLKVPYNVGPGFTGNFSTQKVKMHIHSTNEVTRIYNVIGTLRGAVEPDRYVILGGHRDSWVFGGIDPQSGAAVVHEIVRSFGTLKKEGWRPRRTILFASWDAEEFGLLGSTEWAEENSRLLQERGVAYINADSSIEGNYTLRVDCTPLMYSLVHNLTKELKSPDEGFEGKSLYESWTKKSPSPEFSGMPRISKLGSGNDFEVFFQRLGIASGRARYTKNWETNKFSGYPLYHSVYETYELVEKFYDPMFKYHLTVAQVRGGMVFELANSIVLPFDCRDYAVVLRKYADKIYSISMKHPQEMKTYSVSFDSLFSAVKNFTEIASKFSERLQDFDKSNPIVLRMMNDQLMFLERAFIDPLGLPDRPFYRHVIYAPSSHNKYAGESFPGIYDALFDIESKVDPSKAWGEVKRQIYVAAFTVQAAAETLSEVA

B1: single VH domain antibody 11.1 (VHH)
VHH: EVQLVESGGGLVKPGGSLRLSCAASGFNLISYGMYWVRQAPGKGLEWVAVISYDGSNKNYADSVKGRFTISRDNSKNTLFLQMNSLRVEDTAVYYCAKGGNALYSSGWPDDGFDIRGQGTMVTVSS
notes: Human single VH domain antibody (Humabody); purified via the C-terminal His-tag, residues not tied
Take B1: in test [1], the Kd was 26 nM and the koff came to 0.00149 s⁻¹.

B2: HiPEG C-His6 val-cit-PAB-MMAE (VHH)
VHH: EVQLVESGGGVVQPGRSLRLSCAASGFPLISYGMHWVRQAPGKGLEWVAFMTYDGSNRYYADSVKGRFTISRDNSKNTLYLQMNSLRDEDTALYYCARDRIVGGRVPDAFDIWGQGTMVTVSS
modifications: HiPEG val-cit-PAB-MMAE attached via the C-terminal His6-tag, DAR 1
On to B2, for which, in test [2], the “IC50 Toxin (nM), DU145 PSMA cells, 48 h” value is 5.21 nM; the “Mean IC50, cytotoxicity on DU145 PSMA cells, 48 h” value (shortened to “Mean IC50, cytotoxicity”) was determined as 5.2 nM; the “Mean Max % Cell kill, DU145 PSMA cells, 48 h” value (“Mean Max % Cell kill” for short) was 59%.

B3: single VH domain antibody 10.1 (VHH)
VHH: QVQLVESGGGLVQPGGSLRLSCAASGFTFSSYGMHWVRQAPGKGLEWVAFMSYDGSNKYYVDSVKGRFTISRDNSKNTLYLQMNSLRAEDTAVYYCAKGDYDFWSGYPDYDMDVWGQGTTVTVSS
notes: as for B1
For the molecule B3, in test [1], the Kd turned out to be 95 nM and the koff worked out at 0.00185 s⁻¹.

B4: single VH domain antibody 13.1 (VHH)
VHH: EVQLVESGGGSVQPGGSLRLSCAASGFTFSDYWMTWVRQVPGKGLEWVANIKQDGSEKYYVDSVKGRFTISRDNAKNSLYLQMNSLRAEDTAVYYCARDRGGAVALYHNGMDMGGQGTTVTVSS
notes: as for B1
On to B4, for which, in test [1], the Kd came out at 4.2 nM and the koff amounted to 0.0006 s⁻¹.

B5: HiPEG C-2-C-His6 val-cit-PAB-MMAE (VHH)
chain: EVQLVESGGGVVQPGRSLRLSCAASGFPLISYGMHWVRQAPGKGLEWVAFMTYDGSNRYYADSVKGRFTISRDNSKNTLYLQMNSLRDEDTALYYCARDRIVGGRVPDAFDIWGQGTMVTVSSGGGGSGGGGSGGGGSGGGGSGGGGSGGGGSEVQLVESGGGVVQPGRSLRLSCAASGFPLISYGMHWVRQAPGKGLEWVAFMTYDGSNRYYADSVKGRFTISRDNSKNTLYLQMNSLRDEDTALYYCARDRIVGGRVPDAFDIWGQGTMVTVSS
modifications: HiPEG val-cit-PAB-MMAE attached via the C-terminal His6-tag, DAR 1
Regarding B5, in test [2], the “IC50 Toxin (nM), DU145 PSMA cells, 48 h” value is 4.54 nM; the “Mean IC50, cytotoxicity” value is 4.5 nM; the “Mean Max % Cell kill” value worked out at 69%.

B6: single VH domain antibody 12.1 (VHH)
VHH: QVQLVESGGGVVQPGRSLRLSCAASGFTFSNFGMHWARQAPGKGLEWVAVISYDGNSKYYADTVKGRFTISRDNSKNTLYLEMNSLRADDTAVYYCAKGLWPPMDVRGQGTTVTVSS
notes: as for B1
B6: in test [1], the Kd was found to be 3.9 nM and the koff is 0.00137 s⁻¹.

B7: 1.1-6GS-2.1 (bispecific antibody)
chain: EVQLLESGGGLVQPGGSLRLSCAASGFSFSSYAMSWVRQAPGKGLEWVSSIGENDGTTDYADSVKGRFTISRDNSKSMLYLQMNSLRVEDTAVYYCVKDGVHWGQGTLVTVSSGGGGSGGGGSGGGGSGGGGSGGGGSGGGGSEVQLVESGGGVVQPGRSLRLSCAASGFSFSGYGMHWVRQAPGKGLEWVAYISYDGSNKYYADSVKGRFTISRDNSKNTLYLQMNSLRAEDTAVYYCAKDPAWGLRLGESSSYDFDIWGQGTMVTVSS
For B7, the “His-ZAP cell killing, cyno PSMA Average EC50” value (“His-ZAP cell killing” for short) in test [3] was determined as 0.012 nM.

B8: 1.1-6GS-2.22 (bispecific antibody)
chain: EVQLLESGGGLVQPGGSLRLSCAASGFSFSSYAMSWVRQAPGKGLEWVSSIGENDGTTDYADSVKGRFTISRDNSKSMLYLQMNSLRVEDTAVYYCVKDGVHWGQGTLVTVSSGGGGSGGGGSGGGGSGGGGSGGGGSGGGGSEVQLVESGGGVVQPGRSLRLSCAASGFSFSGYGTHWVRQAPGKGLEWVAYISYDGSNKYYAAPVKGRFTISRDNSKNTLYLQMNSLRAEDTAVYYCAKDAAWGLRLGESSSYDFDIWGQGTMVTVSS
Consider B8, for which the “His-ZAP cell killing” value in test [3] was 0.0078 nM.

B9: 1.11-6GS-2.15 (bispecific antibody)
chain: EVQLLESGGGLVQPGGSLRLSCAASGFSFSSYALSWVRQAPGKGLEWVSSIGENNDTTDYADNVKGRFTISRDNSKNTLYLQMNSLRVEDTAVYYCVKDGVHWGQGTLVTVSSGGGGSGGGGSGGGGSGGGGSGGGGSGGGGSEVQLVESGGGVVQPGRSLRLSCAASGFSFSGYGLHWVRQAPGKGLEWVAYISYDKSNKYYADKVKGRFTISRDNSKNTLYLQMNSLRAEDTAVYYCAKDPAWGLRLGESSSYDFDIWGQGTMVTVSS
For B9, in test [3], the “His-ZAP cell killing” value came out at 0.009 nM.

B10: 1.18-6GS-2.15 (bispecific antibody)
chain: EVQLLESGGGLVQPGGSLRLSCAASGFSFSSYALSWVRQAPGKGLEWVSSIGENNATTDYAASVKGRFTISRDNSKNTLYLQMNSLRVEDTAVYYCVKDGVHWGQGTLVTVSSGGGGSGGGGSGGGGSGGGGSGGGGSGGGGSEVQLVESGGGVVQPGRSLRLSCAASGFSFSGYGLHWVRQAPGKGLEWVAYISYDKSNKYYADKVKGRFTISRDNSKNTLYLQMNSLRAEDTAVYYCAKDPAWGLRLGESSSYDFDIWGQGTMVTVSS
Regarding B10, the “His-ZAP cell killing” value in test [3] turned out to be 0.01 nM.

B11: 1.1-6GS-2.15 (bispecific antibody)
chain: EVQLLESGGGLVQPGGSLRLSCAASGFSFSSYAMSWVRQAPGKGLEWVSSIGENDGTTDYADSVKGRFTISRDNSKSMLYLQMNSLRVEDTAVYYCVKDGVHWGQGTLVTVSSGGGGSGGGGSGGGGSGGGGSGGGGSGGGGSEVQLVESGGGVVQPGRSLRLSCAASGFSFSGYGLHWVRQAPGKGLEWVAYISYDKSNKYYADKVKGRFTISRDNSKNTLYLQMNSLRAEDTAVYYCAKDPAWGLRLGESSSYDFDIWGQGTMVTVSS
Turning to B11, the “His-ZAP cell killing” value in test [3] was 0.0086 nM.

B12: 1.1-6GS-2.17 (bispecific antibody)
chain: EVQLLESGGGLVQPGGSLRLSCAASGFSFSSYAMSWVRQAPGKGLEWVSSIGENDGTTDYADSVKGRFTISRDNSKSMLYLQMNSLRVEDTAVYYCVKDGVHWGQGTLVTVSSGGGGSGGGGSGGGGSGGGGSGGGGSGGGGSEVQLVESGGGVVQPGRSLRLSCAASGFSFSGYGMHWVRQAPGKGLEWVAYISYDASNKYYADNVKGRFTISRDNSKNTLYLQMNSLRAEDTAVYYCAKDPAWGLRLGESSSYDFDIWGQGTMVTVSS
With B12, in test [3], the “His-ZAP cell killing” value was 0.011 nM.

B13: 1.16-6GS-2.15 (bispecific antibody)
chain: EVQLLESGGGLVQPGGSLRLSCAASGFSFSSYALSWVRQAPGKGLEWVSSIGENNHTTDYADTVKGRFTISRDNSKNTLYLQMNSLRVEDTAVYYCVKDGVHWGQGTLVTVSSGGGGSGGGGSGGGGSGGGGSGGGGSGGGGSEVQLVESGGGVVQPGRSLRLSCAASGFSFSGYGLHWVRQAPGKGLEWVAYISYDKSNKYYADKVKGRFTISRDNSKNTLYLQMNSLRAEDTAVYYCAKDPAWGLRLGESSSYDFDIWGQGTMVTVSS
Turning to B13, the “His-ZAP cell killing” value in test [3] is 0.011 nM.

B14: single VH domain antibody 4.1 (VHH)
VHH: QVQLVESGGGVVQPGRSLRLSCVASGFPFISYGMHWVRQAPGKGREWVAVISYDGSNRYYADSVKGRFTISRDNSKNTLYLQMNSLRPEDTAVYYCAKERIFGVLTPDDFDIWGQGTTVTVSS
notes: as for B1
For B14, in test [1], the Kd is 45 nM and the koff was determined as 0.014 s⁻¹.

B15: HiPEG A-1-B-His6 val-cit-PAB-MMAE (bispecific antibody)
chain: EVQLVESGGGVVQPGRSLRLSCAASGFSFSGYGMHWVRQAPGKGLEWVAYISYDGSNKYYADSVKGRFTISRDNSKNTLYLQMNSLRAEDTAVYYCAKDPAWGLRLGESSSYDFDIWGQGTMVTVSSGGGGSGGGGSEVQLLESGGGLVQPGGSLRLSCAASGFSFSSYAMSWVRQAPGKGLEWVSSIGENDGTTDYADSVKGRFTISRDNSKSMLYLQMNSLRVEDTAVYYCVKDGVHWGQGTLVTVSS
modifications: HiPEG val-cit-PAB-MMAE attached via the C-terminal His6-tag, DAR 1
As to B15, in test [2], the “IC50 Toxin (nM), DU145 PSMA cells, 48 h” value stood at 0.67 nM; the “Mean IC50, cytotoxicity” value stood at 0.67 nM; the “Mean Max % Cell kill” value worked out at 75%.
